In IntAct's records for PubMed 23511974:

B1: Centrosomal protein of 135 kDa (Homo sapiens), Q66GS9 (parent)
chain: MTTAVERKYINIRKRLDQLGYRQTLTVECLPLVEKLFSDLVHTTESLRQSKLSAVKAEKESANFDFVLEPYKLENARLSRENNELYLELMKLREHSDQHVKELKTSLKKCARETADLKFLNNQYAHKLKLLEKESKAKNERIQQLQEKNLHAVVQTPGGKKRSIAFRRQRMQIDEPVPPSEVSSYPVPQPDDPYIADLLQVADNRIQELQQEVHQLQEKLAMMESGVRDYSKQIELREREIERLSVALDGGRSPDVLSLESRNKTNEKLIAHLNIQVDFLQQANKDLEKRIRELMETKETVTSEVVNLSNKNEKLCQELTEIDQLAQQLERHKEEVLETADKELGEAKKEIKRKLSEMQDLEETMAKLQLELNLCQKEKERLSDELLVKSDLETVVHQLEQEKQRLSKKVESFAVTERQLTLEVERMRLEHGIKRRDRSPSRLDTFLKGIEEERDYYKKELERLQHIIQRRSCSTSYSAREKSSIFRTPEKGDYNSEIHQITRERDELQRMLERFEKYMEDIQSNVKLLTAERDKLSVLYNEAQEELSALRKESTQTTAPHNIVSLMEKEKELALSDLRRIMAEKEALREKLEHIEEVSLFGKSELEKTIEHLTCVNHQLESEKYELKSKVLIMKETIESLENKLKVQAQKFSHVAGDSSHQKTEVNSLRIVNEQLQRSVDDYQHRLSIKRGELESAQAQIKILEEKIDELNLKMTSQDEEAHVMKKTIGVIDKEKDFLQETVDEKTEKIANLQENLANKEKAVAQMKIMISECESSVNQLKETLVNRDREINSLRRQLDAAHKELDEVGRSREIAFKENRRLQDDLATMARENQEISLELEAAVQEKEEMKSRVHKYITEVSRWESLMAAKEKENQDLLDRFQMLHNRAEDWEVKAHQAEGESSSVRLELLSIDTERRHLRERVELLEKEIQEHINAHHAYESQISSMAKAMSRLEEELRHQEDEKATVLNDLSSLRELCIKLDSGKDIMTQQLNSKNLEFERVVVELENVKSESDLLKKQLSNERHTVKNLESLLATNRDKEFHSHLTSHEKDTEIQLLKEKLTLSESKLTSQSRENTMLRAKVAQLQTDYDALKRQISTERYERERAIQEMRRHGLATPPLSSTLRSPSHSPEHRNV
partner: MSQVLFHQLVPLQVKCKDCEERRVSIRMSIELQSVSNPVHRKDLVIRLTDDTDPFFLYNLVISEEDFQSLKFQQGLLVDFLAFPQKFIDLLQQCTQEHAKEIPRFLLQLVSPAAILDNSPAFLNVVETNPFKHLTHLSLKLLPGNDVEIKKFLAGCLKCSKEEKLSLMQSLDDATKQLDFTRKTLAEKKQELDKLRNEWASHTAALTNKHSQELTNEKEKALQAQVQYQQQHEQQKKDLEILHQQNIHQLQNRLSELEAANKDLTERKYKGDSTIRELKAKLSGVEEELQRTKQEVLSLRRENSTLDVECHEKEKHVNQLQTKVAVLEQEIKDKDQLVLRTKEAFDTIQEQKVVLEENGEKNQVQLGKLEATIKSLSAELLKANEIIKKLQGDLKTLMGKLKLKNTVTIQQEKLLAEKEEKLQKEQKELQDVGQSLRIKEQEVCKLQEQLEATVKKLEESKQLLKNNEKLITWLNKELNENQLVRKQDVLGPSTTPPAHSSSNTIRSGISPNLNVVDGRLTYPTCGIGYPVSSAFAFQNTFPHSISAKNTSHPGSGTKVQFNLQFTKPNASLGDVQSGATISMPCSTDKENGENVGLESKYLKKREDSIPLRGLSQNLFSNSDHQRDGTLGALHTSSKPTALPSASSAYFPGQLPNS

Variants of: B1
Conditions: with sas6_human SASS6, Q6UVJ0

Row | effect of a mutation on the interaction | Variant
1 | disrupting interaction | L588P
